Experimental findings from patent US20250339504A1 (published 2025) are described below.

The test deals with EPHB4 peptide on HLA-A*02:01 (human). Put plainly: activation reporter or marker.

B1: Clone 4, 7, 34 (Table 10) (TCR, V domains shown)
Valpha: GEQVEQRPPHLSVREGDSAFIICTYTDSATAYFYWYKQEPGAGLQLLMSVFSNVDRKEEQGLTVLLNKKDKRLSLNLTAAHPGDSAVYFCAVGNSNNRIFFGDGTQLVVKP
Vbeta: NTKITQSPRYLILGRANKSLECEQHLGHNAMYWYKQSAEKPPELMFLYNLKQLIRNETVPSRFIPECPDSSKLLLHISAVDPEDSAVYFCASSQLGSSAETLYFGSGTRLTVL
As for B1, the binding result is “recognises”.
